For data set [1], the target named is T1, SPP–myc (signal peptide peptidase, myc-tagged) (human), Q8TCT9.
T1 chain: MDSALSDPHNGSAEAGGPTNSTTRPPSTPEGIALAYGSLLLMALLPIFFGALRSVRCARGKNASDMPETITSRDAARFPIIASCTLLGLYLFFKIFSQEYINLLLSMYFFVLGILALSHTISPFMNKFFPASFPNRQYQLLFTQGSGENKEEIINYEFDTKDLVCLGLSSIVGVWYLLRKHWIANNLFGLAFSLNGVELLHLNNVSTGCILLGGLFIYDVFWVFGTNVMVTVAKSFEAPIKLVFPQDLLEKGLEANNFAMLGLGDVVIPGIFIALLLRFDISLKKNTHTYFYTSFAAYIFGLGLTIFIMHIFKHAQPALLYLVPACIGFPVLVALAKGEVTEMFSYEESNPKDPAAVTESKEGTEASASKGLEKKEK
As to the kind of experiment: SDS/PAGE. Conditions: remark: other sources report otherwise.

The data set “native gel or EMSA” deals with the molecule itself. The experiment in a line: native gel or EMSA.

B1: SPP–myc (signal peptide peptidase, myc-tagged), Q8TCT9 1-377 (enzyme)
chain: MDSALSDPHNGSAEAGGPTNSTTRPPSTPEGIALAYGSLLLMALLPIFFGALRSVRCARGKNASDMPETITSRDAARFPIIASCTLLGLYLFFKIFSQEYINLLLSMYFFVLGILALSHTISPFMNKFFPASFPNRQYQLLFTQGSGENKEEIINYEFDTKDLVCLGLSSIVGVWYLLRKHWIANNLFGLAFSLNGVELLHLNNVSTGCILLGGLFIYDVFWVFGTNVMVTVAKSFEAPIKLVFPQDLLEKGLEANNFAMLGLGDVVIPGIFIALLLRFDISLKKNTHTYFYTSFAAYIFGLGLTIFIMHIFKHAQPALLYLVPACIGFPVLVALAKGEVTEMFSYEESNPKDPAAVTESKEGTEASASKGLEKKEK
B1: the stoichiometry N (usually the number of molecules, sites or subunits per partner or assembly) in data set [1] turned out to be 2.

B2: SPP^D/A–myc (SPP-D265A, catalytically inactive, myc-tagged) (enzyme)
chain: MDSALSDPHNGSAEAGGPTNSTTRPPSTPEGIALAYGSLLLMALLPIFFGALRSVRCARGKNASDMPETITSRDAARFPIIASCTLLGLYLFFKIFSQEYINLLLSMYFFVLGILALSHTISPFMNKFFPASFPNRQYQLLFTQGSGENKEEIINYEFDTKDLVCLGLSSIVGVWYLLRKHWIANNLFGLAFSLNGVELLHLNNVSTGCILLGGLFIYDVFWVFGTNVMVTVAKSFEAPIKLVFPQDLLEKGLEANNFAMLGLGAVVIPGIFIALLLRFDISLKKNTHTYFYTSFAAYIFGLGLTIFIMHIFKHAQPALLYLVPACIGFPVLVALAKGEVTEMFSYEESNPKDPAAVTESKEGTEASASKGLEKKEK
Consider B2, for which the “stoichiometry N” value in “native gel or EMSA” came out at 2.

(Values after article PMC2860808 (Biochemical Journal, 2010).)
